Test results from article PMC8017925, “Structural basis for differential recognition of phosphohistidine-containing peptides by 1-pHis and 3-pHis monoclonal antibodies” (Proceedings of the National Academy of Sciences of the …, 2021).

T1: ACLY peptide, 3-pHis form
T1 sequence (peptide, biotin on the N-terminus; C-terminal amide; 3-phosphohistidine at position 5): VQFGHAGAC

T2: Common-His peptide, 3-pHis form
T2 sequence (peptide, biotin on the N-terminus; C-terminal amide; 3-phosphohistidine at position 5): GEQLHDLNA

T3: NM23 peptide, 3-pHis form
T3 sequence (peptide, biotin on the N-terminus; C-terminal amide; 3-phosphohistidine at position 5): RNIIHGSDS

T4: ACLYana-3-pHis peptide (AGAG-3-pHis-AGAG)
T4 sequence (peptide, 3-phosphohistidine at position 5; biotin on the N-terminus): AGAGHAGAG

T5: ACLYana-1-pHis peptide (AGAG-1-pHis-AGAG)
T5 sequence (peptide, 1-phosphohistidine at position 5; biotin on the N-terminus): AGAGHAGAG


Experiments:
[1] = molecular target: T1, ACLY peptide, 3-pHis form; assay: BLI; biotinylated pHis peptides (20 nM) on streptavidin biosensors, Fab in solution at varying concentrations; 50 mM Hepes pH 8.0, 150 mM NaCl, 0.05% Tween-20, 0.2% BSA; Octet RED96e; global fit to a 1:1 Langmuir model
[2] = molecular target: T2, Common-His peptide, 3-pHis form; assay: as above
[3] = molecular target: T3, NM23 peptide, 3-pHis form; assay: as above
[4] = substrate: SCS peptide, 3-pHis form; assay: as above
[5] = molecular target: T4, ACLYana-3-pHis peptide (AGAG-3-pHis-AGAG); assay: BLI; N-terminally biotinylated peptides (20 nM) on streptavidin biosensors, varying concentrations of Fab in solution; 50 mM Hepes pH 8.0, 150 mM NaCl, 0.05% Tween-20, 0.2% BSA; association 120 s, dissociation 200 s; global fit to a 1:1 Langmuir model; Octet RED96e; in triplicate
[6] = molecular target: ACLYana-3-pTza peptide (AGAG-3-pTza-AGAG); assay: as above
[7] = molecular target: T5, ACLYana-1-pHis peptide (AGAG-1-pHis-AGAG); assay: as above
[8] = molecular target: ACLYana-1-pTza peptide (AGAG-1-pTza-AGAG); assay: as above
[9] = molecular target: ACLYana-3-pTza peptide (AGAG-3-pTza-AGAG); assay: BLI binding kinetics of 3-pHis Fabs with cognate pTza peptide; conditions: triplicate; for Kd: BLI Octet RED96e, N-terminally biotinylated peptide (20 nM) on streptavidin biosensors, varying Fab concentration, 50 mM Hepes pH 8.0, 150 mM NaCl, 0.05% Tween-20, 0.2% BSA, association 120 s, dissociation 200 s, global fit 1:1 Langmuir; for ka / kd: BLI, immobilized biotinylated ACLYana-3-pTza, 1:1 Langmuir global fit
Procedure: (§1) Biolayer interferometry (BLI) studies were performed to determine the relative affinity of pHis Fabs to in situ phosphorylated His peptides versus the phosphomimetic substrates. The N-terminally biotinylated peptides were immobilized on streptavidin biosensors and the rate of association (ka) and dissociation (kd) were determined by varying the pHis Fab concentration. Equilibrium dissociation constants (KD) were determined by fitting the experimental data to a 1:1 Langmuir binding model. ACLYana-1-pTza and ACLYana-3-pTza peptides were used to determine affinity to 1-pHis and 3-pHis Fabs, respectively (Fig. 3 A–E and Table 1). […] The two isomers were separated from each other by passing the reaction through affinity columns containing 1-pHis mAbs using SC1-1 or SC50-3 IgGs or 3-pHis mAbs using SC39-4, SC44-8, and SC56-2 IgGs. The eluates thus contained either predominantly 1-pHis or 3-pHis peptides. These peptides were used to determine the affinity to their respective isomer class of pHis Fabs (Fig. 3 F–J, Table 1, and SI Appendix, Fig. S5). […] This experimental observation is well supported by the higher number of hydrogen bonds that support the SC44-8:3-pTza interaction compared to other pHis Fabs (SI Appendix, Table S5). […] There are at least three reasons for the lower affinity of the mAbs for pHis peptides compared to pTza peptides: The continuous hydrolysis of phosphate from the pHis peptides during the course of the experiment (SI Appendix, Fig. S6), a reduction in the number of hydrogen bond interactions due to one less nitrogen in the imidazole ring compared to triazolyl ring (Fig. 4 and SI Appendix, Fig. S8), and inherently different electronic properties of the imidazole and triazolyl rings in His and Tza, respectively ([20]).
(§2) Fig. 3. Binding kinetics of pHis Fabs with cognate pTza and pHis peptides. BLI studies of immobilized peptides (ACLYana-1/3-pTza and phosphorylated ACLYana) with varying concentrations of the pHis Fabs were carried out in triplicate on an Octet Red96e instrument (FortéBio). SC1-1 (A) and SC50-3 (B) pHis Fab interaction with their ACLYana-1-pTza peptides. SC39-4 (C), SC44-8 (D), and SC56-2 (E) pHis Fabs interactions with ACLYana-3-pTza peptides. SC1-1 (F), SC50-3 (G), SC39-4 (H), SC44-8 (I), and SC56-2 (J) pHis Fabs interactions with their affinity-purified ACLYana-pHis peptides are represented, Right. The experimental data are represented in the black dashed lines and the nonlinear least-squares fitting was represented in the red continuous lines. The χ^2 for the goodness of fit is under 1.0 for the all the plots.
(§3) The binding kinetics of pHis Fabs with the peptides (pTza and pHis) were evaluated with an Octet RED96e (FortéBio). Streptavidin-coated biosensors (FortéBio) were presoaked in buffer containing 50 mM Hepes pH 8.0, 150 mM NaCl, 0.05% Tween-20, and 0.2% BSA for 15 min. The biotinylated pTza peptides or pHis peptides (20 nM) with and without phosphoramidate treatment were coated onto these streptavidin biosensors and analyzed for their binding to varying concentrations of the pHis Fabs with an association time of 120 s and dissociation time of 200 s. The entire set of experiments was repeated three times. The data were analyzed using the Octet software (FortéBio) and the rates of association and dissociation were obtained by global fitting data to the 1:1 Langmuir interaction model.

[10] = tested on: ACLYana-3-pHis peptide (AGAG-3-pHis-AGAG); assay: BLI binding kinetics of 3-pHis Fabs with affinity-purified pHis peptide; conditions: for ka / kd / Kd: BLI, 1:1 Langmuir global fit, triplicate; for ka / kd: affinity-purified ACLYana-3-pHis peptide; for Kd: ACLYana phosphorylated with phosphoramidate (8 h, 23 °C), 3-pHis isomer affinity-purified on 3-pHis IgG column, immobilized on streptavidin biosensors, Hepes pH 8.0; for affinity for 3-pHis peptides, times (fold) weaker than for the 3-pTza peptide: ratio of BLI KD, 3-pHis versus 3-pTza peptide
Procedure: as §1, §2
as §3, with “model. […]” for “model.”
Peptides used in the DSF and BLI experiments were synthesized by the Salk Peptide Synthesis Core. These peptides were N-terminally biotinylated and C-terminally amidated. They were synthesized using standard Fmoc chemistry on a Gyros Protein Technologies Tribute peptide synthesizer with UV monitoring. Following the deprotection, peptides were analyzed by mass spectrometry and analytical HPLC by the Proteomics Core at Salk. The peptides were HPLC purified to 99% purity by 21st Century Biochemicals, Inc. The Fmoc-pTza’s were synthesized at 10 g scale for incorporation into the peptides. […]

Kd [1]	koff [1]	kon [1]	Kd [2]	koff [2]	kon [2]	Kd [3]	koff [3]	kon [3]	Kd [4]	koff [4]	kon [4]	Kd [5]	koff [5]	kon [5]	Kd [6]	koff [6]	kon [6]	Kd [9]	ka [9]	further results	Molecule
1420 nM	0.0243 s⁻¹	72200 M⁻¹ s⁻¹	3.29 µM	0.0454 s⁻¹	13800 M⁻¹ s⁻¹	2.35 µM	0.073 s⁻¹	51400 M⁻¹ s⁻¹	2.32 µM	0.0521 s⁻¹	22400 M⁻¹ s⁻¹	799 nM	0.117 s⁻¹	147000 M⁻¹ s⁻¹	67 nM	0.011 s⁻¹	164000 M⁻¹ s⁻¹	–	–	–	SC39-4 Fab (Fab, V domains shown) VH: QSVEESGGRLVTPGGSLTLTCTVSGFSLSRYNMGWVRQAPGKGLEWIGWIPFRGSLKYATWATGRFTISRTSTTVDLRMTGLTAADTATYFCVRSSDGFDLWGPGTLVTISS VL: DMTQTPASVEAVVGGTVTIKCQASRDTGDGLIWYQQKPGQPPKRLIYKASTVASGVPSRFKGRGSGTDFTLTISDLECADAATYYCHSNFYNRWTYGNAFGGGTEVVVK
3010 nM	0.15 s⁻¹	50100 M⁻¹ s⁻¹	3.6 µM	0.127 s⁻¹	35600 M⁻¹ s⁻¹	5.7 µM	0.126 s⁻¹	22200 M⁻¹ s⁻¹	6.2 µM	0.136 s⁻¹	22000 M⁻¹ s⁻¹	2420 nM	0.183 s⁻¹	75600 M⁻¹ s⁻¹	96.6 nM	0.00939 s⁻¹	97300 M⁻¹ s⁻¹	–	–	–	SC56-2 Fab (Fab, V domains shown) VH: QSVEESEGGLIKPGGILTLTCTASGFSLSSYGFSWVRQAPGKGLEHIGYLHANGRAYYATWAKSRSTITRNTNLNTVTLQLTSLTAADTATYFCAKIGSVSDVAIWGPGTLVTISS VL: DMTQTPSSTSAAVGGTVTINCQSSESIYNNKNLAWYQQKPGQSPRRLIYSISTLASGVSSRFKGSGSGTQFTLTISDVQCDDAATYYCVGYYYSGGYYYSGSAAYYAFGGGTEVVVK
–	–	–	–	–	–	–	–	–	–	–	–	–	–	–	–	–	–	–	–	Kd [7]: 95.1 nM; koff [7]: 0.00925 s⁻¹; kon [7]: 97300 M⁻¹ s⁻¹; Kd [8]: 24.8 nM; koff [8]: 0.00199 s⁻¹; kon [8]: 81300 M⁻¹ s⁻¹	SC1-1 Fab (Fab, V domains shown) VH: QSVEESEGGLFKPTDTLTLTCTASGFSLSGHGVIWVRQAPGKGLEWIGSAGAYGRIYYASWAKSRSTITRNTNLNTVTLKMTSLTAADTATYFCARRSDVGTSVGFDSWGPGTLVTISS VL: DMTQTPSSKSVPVGDTVTINCQASESVYSNNRLSWFQQKPGQPPKLLIYLVSTLASGVPSRFKGSGSGTQFTLTISDVVCDDAATYYCVGYKSSTTDGLAFGGGTEVVVK
–	–	–	–	–	–	–	–	–	–	–	–	–	–	–	–	–	–	67 nM	164000 ± 1060 M⁻¹ s⁻¹	kd [9]: 0.011 ± 1.6e-05 s⁻¹; ka [10]: 147000 ± 5780 M⁻¹ s⁻¹; kd [10]: 0.117 ± 0.0016 s⁻¹; Kd [10]: 799 nM; affinity for 3-pHis peptides, times (fold) weaker than for the 3-pTza peptide [10]: 10 to 25 times	SC39-4: Fab of rabbit 3-pHis-specific monoclonal antibody (antibody, V domains shown) VH: QSVEESGGRLVTPGGSLTLTCTVSGFSLSRYNMGWVRQAPGKGLEWIGWIPFRGSLKYATWATGRFTISRTSTTVDLRMTGLTAADTATYFCVRSSDGFDLWGPGTLVTISS VL: DMTQTPASVEAVVGGTVTIKCQASRDTGDGLIWYQQKPGQPPKRLIYKASTVASGVPSRFKGRGSGTDFTLTISDLECADAATYYCHSNFYNRWTYGNAFGGGTEVVVK
–	–	–	–	–	–	–	–	–	–	–	–	–	–	–	–	–	–	96.6 nM	97300 ± 1110 M⁻¹ s⁻¹	kd [9]: 0.00939 ± 1.78e-05 s⁻¹; ka [10]: 75600 ± 2170 M⁻¹ s⁻¹; kd [10]: 0.183 ± 0.00181 s⁻¹; Kd [10]: 2420 nM; affinity for 3-pHis peptides, times (fold) weaker than for the 3-pTza peptide [10]: 10 to 25 times	SC56-2: Fab of rabbit 3-pHis-specific monoclonal antibody (antibody, V domains shown) VH: QSVEESEGGLIKPGGILTLTCTASGFSLSSYGFSWVRQAPGKGLEHIGYLHANGRAYYATWAKSRSTITRNTNLNTVTLQLTSLTAADTATYFCAKIGSVSDVAIWGPGTLVTISS VL: DMTQTPSSTSAAVGGTVTINCQSSESIYNNKNLAWYQQKPGQSPRRLIYSISTLASGVSSRFKGSGSGTQFTLTISDVQCDDAATYYCVGYYYSGGYYYSGSAAYYAFGGGTEVVVK
